Laboratory results as given in doi:10.1101/2020.02.09.940833 (bioRxiv, 2020).

B1: SEC23A (natural protein)
chain: MTTYLEFIQQNEERDGVRFSWNVWPSSRLEATRMVVPVAALFTPLKERPDLPPIQYEPVLCSRTTCRAVLNPLCQVDYRAKLWACNFCYQRNQFPPSYAGISELNQPAELLPQFSSIEYVVLRGPQMPLIFLYVVDTCMEDEDLQALKESMQMSLSLLPPTALVGLITFGRMVQVHELGCEGISKSYVFRGTKDLSAKQLQEMLGLSKVPLTQATRGPQVQQPPPSNRFLQPVQKIDMNLTDLLGELQRDPWPVPQGKRPLRSSGVALSIAVGLLECTFPNTGARIMMFIGGPATQGPGMVVGDELKTPIRSWHDIDKDNAKYVKKGTKHFEALANRAATTGHVIDIYACALDQTGLLEMKCCPNLTGGYMVMGDSFNTSLFKQTFQRVFTKDMHGQFKMGFGGTLEIKTSREIKISGAIGPCVSLNSKGPCVSENEIGTGGTCQWKICGLSPTTTLAIYFEVVNQHNAPIPQGGRGAIQFVTQYQHSSGQRRIRVTTIARNWADAQTQIQNIAASFDQEAAAILMARLAIYRAETEEGPDVLRWLDRQLIRLCQKFGEYHKDDPSSFRFSETFSLYPQFMFHLRRSSFLQVFNNSPDESSYYRHHFMRQDLTQSLIMIQPILYAYSFSGPPEPVLLDSSSILADRILLMDTFFQILIYHGETIAQWRKSGYQDMPEYENFRHLLQAPVDDAQEILHSRFPMPRYIDTEHGGSQARFLLSKVNPSQTHNNMYAWGQESGAPILTDDVSLQVFMDHLKKLAVSSAA
B2: SEC23B (natural protein)
chain: MATYLEFIQQNEERDGVRFSWNVWPSSRLEATRMVVPLACLLTPLKERPDLPPVQYEPVLCSRPTCKAVLNPLCQVDYRAKLWACNFCFQRNQFPPAYGGISEVNQPAELMPQFSTIEYVIQRGAQSPLIFLYVVDTCLEEDDLQALKESLQMSLSLLPPDALVGLITFGRMVQVHELSCEGISKSYVFRGTKDLTAKQIQDMLGLTKPAMPMQQARPAQPQEHPFASSRFLQPVHKIDMNLTDLLGELQRDPWPVTQGKRPLRSTGVALSIAVGLLEGTFPNTGARIMLFTGGPPTQGPGMVVGDELKIPIRSWHDIEKDNARFMKKATKHYEMLANRTAANGHCIDIYACALDQTGLLEMKCCANLTGGYMVMGDSFNTSLFKQTFQRIFTKDFNGDFRMAFGATLDVKTSRELKIAGAIGPCVSLNVKGPCVSENELGVGGTSQWKICGLDPTSTLGIYFEVVNQHNTPIPQGGRGAIQFVTHYQHSSTQRRIRVTTIARNWADVQSQLRHIEAAFDQEAAAVLMARLGVFRAESEEGPDVLRWLDRQLIRLCQKFGQYNKEDPTSFRLSDSFSLYPQFMFHLRRSPFLQVFNNSPDESSYYRHHFARQDLTQSLIMIQPILYSYSFHGPPEPVLLDSSSILADRILLMDTFFQIVIYLGETIAQWRKAGYQDMPEYENFKHLLQAPLDDAQEILQARFPMPRYINTEHGGSQARFLLSKVNPSQTHNNLYAWGQETGAPILTDDVSLQVFMDHLKKLAVSSAC

Molecular target: SAR1B (human, UniProt Q9Y6B6 1-198)
Sequence (Q9Y6B6 whole entry): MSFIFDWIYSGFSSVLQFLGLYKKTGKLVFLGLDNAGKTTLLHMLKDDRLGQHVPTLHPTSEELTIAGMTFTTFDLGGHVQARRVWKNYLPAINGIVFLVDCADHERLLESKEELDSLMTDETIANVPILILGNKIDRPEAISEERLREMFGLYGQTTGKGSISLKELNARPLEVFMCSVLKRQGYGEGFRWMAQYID
Experiment: liposome flotation

Binder	fold binding relative to SAR1A, with SEC31A-af added [fold]	fold recruitment relative to SAR1A [fold]
B1	~5	~5
B2	~5	~5
